Measured values published in the Immune Epitope Database (IEDB).

Molecular target: HLA-A*02:01
Experiment: IEDB peptide-MHC binding, cellular MHC/competitive/fluorescence; ≥ and ≤ were set here for values at or beyond the usual limits of such assays
Settings: source organism: Human papillomavirus 16

Sequence | IC50
YMLDLQPETTD | 2.37 µM
ELQTTIHDI | 36.9 µM
TLHEYMLDLQP | 19.4 µM
YMLDLQPE | 8.07 µM
EYMLDLQPET | 45.3 µM
MLDLQPET | 53.7 µM
TLEDLLMGT | 64.6 µM
RTLEDLLMGT | 66.9 µM
IRTLEDLLMGT | 31.9 µM
RTLEDLLMGTL | 2.69 µM
EDLLMGTLGIV | 14.2 µM
